From US6613878B1, “PCNA binding substance” (Cyclacel Limited, priority 1995, dated 2003)
Ends that are not written are not given here.

How the values were obtained:
PCNA [1] = target: T1, PCNA (Homo sapiens, UniProt P12004); experiment: Peptide precipitation of PCNA from HeLa cell lysate, PC10 Western blot; assay type: binding; set-up: HeLa cell lysate was added to the washed beads to a final protein concentration of 1 mg/ml; endogenous in cells; host or cells: HeLa; details: 2.7 μg peptide on beads; HeLa lysate 1 mg/ml; PC10 immunoblot
Experimental: Twenty amino acid peptides with 15 amino acid overlaps were synthesized (Chiron Mimotopes, Australia) across the 89 amino acids from the C-terminal region of Fen1 identified in the two hybrid screen as the PCNA binding site on Fen1. These peptides were linked via residues SGSG (SEQ ID NO:3) at the amino acid terminus to biotin. 2.7 μg of each peptide was incubated with 10 μl streptavidin agarose beads (Sigma) in phosphate buffered saline (PBS) for 1 hour at room temperature (r.t.) then beads were washed extensively in PBS and recovered each time by centrifugation at 11,600 g. HeLa cell lysate was added to the washed beads to a final protein concentration of 1 mg/ml and incubated with the beads on ice for 1 hour. Beads were extensively washed in PBS with 220 mM NaCl, then bound proteins removed by boiling for 8 minutes in SDS loading buffer with 0.2 M DTT. Proteins were separated on 10% SDS-PAGE then electrophoretically transferred to nitrocellulose. Blots were blocked then incubated for 1 hour r.t. with PC 10 hybridoma supernatant (Waseem & Lane, 1990) diluted 1:5 in DMEM with 10% FCS. After washing, secondary HRP-conjugated anti-mouse IgG serum at 1:1000 in 2% non-fat milk-PBS-0.2% Tween was added for 1 hour at r.t. Bound antibody was visualised using the ECL system according to the manufacturer's instructions (Amersham plc.)
To map precisely the residues of Fen1 to which PCNA binds, a series of biotinylated 20 amino acids peptides (with 15 amino acid overlaps) were synthesized representing the region of Fen1 found to interact with PCNA in the two hybrid screen (FIG. 1). Fen1 peptides (bound to streptavidin agarose beads) were incubated with human HeLa cell extracts, then beads were precipitated and bound protein analysed on immunoblots probed with monoclonal anti-PCNA antibody PC10 (Waseen & Lane, 1990).
The region of human Fen1 recognised by PCNA in the precipitation assay contains a motif highly conserved in the Fen1 family. We examined whether human PCNA could bind to his motif in the yeast homologues of Fen1, S. pombe rad2 and […]/YKL510. […]

PCNA [2] = target: T1, PCNA; experiment: Competitive ELISA: PCNA binding to immobilised FenPBP (peptide 84); set-up: made in house; used as unpurified lysate; details: non-biotinylated 9-mer, FIG. 4
Experimental: Biotinylated FenPBP (peptide 84 (SEQ ID NO:4)—see FIG. 2) was immobilised on ELISA dishes pre-coated with streptavidin. Bacterial cell lysate overexpressing recombinant human PCNA was mixed with increasing amounts of a non-biotinylated 9 amino acid peptide QTSMTDFYH (SEQ ID NO:2) derived from p21PBP (Warbrick et al., 1995), then binding of PCNA to the immobilised FenPBP was measured using polyclonal antibody 3009 against PCNA, followed by HRP-anti-rabbit antibody,and calorimetric detection at 450 nm.
ELISA plates were coated overnight at 37° C. with 100 ng of streptavidin per well. Plates were blocked with 5% non-fat milk powder in PBS, washed extensively with PBS containing 0.2% Tween 20 (PBS-T) then 100 μl FenPBP—peptide 84 (SEQ ID NO:4) (see FIG. 2)—at 10 μg/ml was added to each well. Following 1 hour incubation at r.t. in a humid chamber, wells were washed extensively. Approximately 3.5 μg total protein containing overexpressed recombinant human PCNA was mixed with varying concentrations of a 9 amino acid peptide derived from p21PBP (Warbrick et al, 1995), of the sequence QTSMTDFYH (SEQ ID NO:2) (purified by HPLC and verified by mass spectrometry) and applied to the wells for 1 hour at r.t. After extensive washing, anti-PCNA polyclonal antibody 3009 (Cox et al., manuscript in preparation) was added at 1:1000, followed by HRP-conjugated anti-rabbit IgG serum at 1:1000, and bound antibody was visualized by the TMB colormetric procedure (Harlow & Lane, 1998). Plated were read at 450 nm using a Dynatech 5000 plate reader.
Since the region of PCNA bound by Fen1 is the same as that recognised by p21^Cip1, and the motif of Fen1 required for PCNA interaction appears homologous to the critical residues of p21PBP (Warbrick et al., 1995), it is highly possible that Fen1 and p21^Cip1 might compete for binding to PCNA. We therefore tested this hypothesis using PCNA-interacting peptide 84 (SEQ ID NO:4) of Fen1 (dubbed Fen1PBP for Fen1-PCNA binding peptide) immobilised in ELISA wells. […]

T1 sequence (P12004 whole entry): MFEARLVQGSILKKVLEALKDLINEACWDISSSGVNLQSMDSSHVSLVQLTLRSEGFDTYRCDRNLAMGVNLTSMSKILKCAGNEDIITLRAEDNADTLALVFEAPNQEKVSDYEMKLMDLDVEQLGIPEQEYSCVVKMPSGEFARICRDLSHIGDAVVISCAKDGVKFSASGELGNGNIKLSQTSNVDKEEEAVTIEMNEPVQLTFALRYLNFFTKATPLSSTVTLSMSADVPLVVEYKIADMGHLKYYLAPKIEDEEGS

| Substance | PCNA precipitated from HeLa cell extract by biotinylated peptide on streptavidin agarose beads (PCNA [1]) | Concentration of added peptide giving total displacement of PCNA from immobilised Fen1PBP (PCNA [2]; immobilised Fen1PBP) [mM] | Concentration of peptide that completely prevented PCNA binding to Fen1PBP (approximate molar) (PCNA [2]; immobilised biotinylated FenPBP) | Concentration of peptide that completely prevented PCNA binding to Fen1PBP (PCNA [2]; immobilised biotinylated FenPBP, antibody 3009, read at 450 nm) [µg/mL] |
| --- | --- | --- | --- | --- |
| 85: Biotinylated 20 amino acid peptide of the human Fen1 C-terminal region containing TQGRLDDFFK (SGSGSRQGSTQGRLDDFFKVTGSL; also: biotinylated) [compound 85] | equal efficiency |  |  |  |
| 86: Biotinylated 20 amino acid peptide of the human Fen1 C-terminal region containing TQGRLDDFFK (SGSGTQGRLDDFFKVTGSLSSAKR; also: biotinylated) [compound 86] | equal efficiency |  |  |  |
| QTSMTDFYH [Non-biotinylated 9 amino acid peptide derived from p21PBP (Warbrick et al., 1995)] |  | 1 | approximately 1 μM | 1 |
| peptide 84: Biotinylated (SGSG-linked) 20 amino acid peptide of the human Fen1 C-terminal region containing TQGRLDDFFK; Fen1-PCNA binding peptide (SGSGKRLSKSRQGSTQGRLDDFFK; also: biotinylated, site not given here) | equal efficiency |  |  |  |
